Assay results taken from the Human Domainome abundance scans (Beltran et al. 2025).
± gives the uncertainty stated by the source.

B1: Transcription elongation regulator 1-like protein, residues 448 to 504; numbered along this chain, Q5VWI1 (parent)
chain: LPLEERVTHFRDMLLERGVSAFSTWEKELHKIVFDPRYLLLNSEERKQIFEQFVKTR

Variants of: B1
Assay: abundance fitness (aPCA) (normalised: wild type 0, dead -1); higher = more abundant; growth selection in yeast, the domain comes from the species named
Settings: Homo sapiens

Abundance fitness, by site and new letter:
L40: M -0.295 ± 0.3 | S -0.619 ± 0.25 | A -0.504 ± 0.094 | D -1.05 ± 0.36 | E -0.466 ± 0.13 | G -0.349 ± 0.13 | V -0.877 ± 0.18 | P -0.688 ± 0.32 | K -0.966 ± 0.28 | W -0.639 ± 0.26
S23: G -0.353 ± 0.47 | R -0.811 ± 0.25
I32: A -0.909 ± 0.33 | V 0.086 ± 0.095 | R -0.538 ± 0.16 | T -0.81 ± 0.43 | G -0.764 ± 0.16 | W -0.514 ± 0.32 | K -0.847 ± 0.32 | D -0.852 ± 0.2 | L -0.494 ± 0.13 | F -0.433 ± 0.47 | E -0.633 ± 0.18 | S -0.916 ± 0.23 | P -0.418 ± 0.12 | Y 0.058 ± 0.14 | C -0.484 ± 0.39 | M -0.466 ± 0.33
Y38: L -0.5 ± 0.15 | M -0.801 ± 0.46 | I -0.645 ± 0.44 | S -0.898 ± 0.28 | P -0.653 ± 0.4 | A -0.815 ± 0.32 | V -0.767 ± 0.2 | R -0.669 ± 0.19 | F -0.129 ± 0.31 | G -0.786 ± 0.14 | Q -0.668 ± 0.15 | K -0.275 ± 0.36 | T -0.69 ± 0.34 | W -1.06 ± 0.37
K27: Q 0.101 ± 0.29 | C -0.032 ± 0.36 | H -0.612 ± 0.23 | F 0.197 ± 0.25 | P -0.627 ± 0.23 | A 0.073 ± 0.15 | R -0.295 ± 0.14 | T -0.711 ± 0.35 | G -0.366 ± 0.15 | V -0.422 ± 0.12 | S -0.679 ± 0.24 | E -0.165 ± 0.092 | W -0.799 ± 0.37
F34: S 0.229 ± 0.13 | G 0.11 ± 0.074 | C -0.104 ± 0.1 | M -0.04 ± 0.19 | T 0.245 ± 0.17 | H 0.156 ± 0.35 | W -0.343 ± 0.2 | A 0.029 ± 0.21 | V -0.085 ± 0.16 | I 0.199 ± 0.28 | L -0.019 ± 0.13 | K -0.063 ± 0.34 | D 0.351 ± 0.38 | R 0.099 ± 0.071
H30: E -0.276 ± 0.29 | K -0.403 ± 0.25 | N -0.547 ± 0.35 | P 0.098 ± 0.2 | D -0.235 ± 0.32 | V -0.608 ± 0.21 | G -0.505 ± 0.19 | W -0.138 ± 0.19 | R -0.295 ± 0.16 | A -0.714 ± 0.29 | T -0.492 ± 0.18 | I -0.439 ± 0.25 | M -0.515 ± 0.46 | L -0.544 ± 0.26 | C -0.569 ± 0.19 | Y -0.337 ± 0.3 | S -0.585 ± 0.26
F22: C 0.078 ± 0.12 | I -0.797 ± 0.33 | Q 0.199 ± 0.1 | L -0.045 ± 0.14 | V -0.439 ± 0.12 | T 0.048 ± 0.14 | P -0.48 ± 0.28 | Y -0.031 ± 0.088 | M -0.431 ± 0.45 | D 0.292 ± 0.082 | G 0.04 ± 0.069 | S 0.063 ± 0.092 | N 0.471 ± 0.21 | R -0.155 ± 0.1
L15: W -0.406 ± 0.15 | K -0.161 ± 0.26 | H -0.352 ± 0.37 | I -0.315 ± 0.32 | V -0.207 ± 0.15 | G -0.273 ± 0.11 | F -0.325 ± 0.38 | R 0.139 ± 0.088 | S 0.054 ± 0.1 | P -0.548 ± 0.28 | N -0.154 ± 0.37
V33: C -0.514 ± 0.46 | M -0.227 ± 0.27 | S 0.028 ± 0.18 | R 0.108 ± 0.062 | K 0.062 ± 0.17 | H 0.238 ± 0.44 | L -0.47 ± 0.13 | P -0.112 ± 0.33 | A -0.138 ± 0.12 | T -0.423 ± 0.19 | E -0.076 ± 0.16 | G -0.764 ± 0.15 | W -0.415 ± 0.21 | I 0.129 ± 0.33
V19: Q -0.625 ± 0.4 | T -0.674 ± 0.25 | W -0.767 ± 0.27 | G -0.7 ± 0.13 | K -0.376 ± 0.29 | L -0.998 ± 0.32 | R -0.916 ± 0.2 | S -0.805 ± 0.25 | A -0.709 ± 0.22 | I -0.528 ± 0.15 | C -0.611 ± 0.44 | E -0.893 ± 0.14
S20: G -0.283 ± 0.1 | V -0.691 ± 0.25 | E -0.563 ± 0.23 | R -1 ± 0.38 | N 0.589 ± 0.17 | D -0.185 ± 0.22 | F -0.523 ± 0.14 | A -0.369 ± 0.16 | W -0.371 ± 0.18 | T -0.38 ± 0.33 | L -0.594 ± 0.22 | P -0.535 ± 0.45 | C -0.169 ± 0.25
K31: R -0.662 ± 0.13 | M -0.496 ± 0.17 | F -0.587 ± 0.31 | P -0.681 ± 0.27 | V -0.705 ± 0.12 | L -0.781 ± 0.38 | C -0.457 ± 0.15 | S -0.789 ± 0.17
A21: S -0.303 ± 0.19 | Y -0.482 ± 0.11 | W -0.594 ± 0.26 | P -0.114 ± 0.1 | Q -0.245 ± 0.34 | E -0.165 ± 0.17 | V -0.22 ± 0.15 | T -0.399 ± 0.3 | F -0.593 ± 0.23 | C -0.202 ± 0.34 | R -0.364 ± 0.19 | K -0.286 ± 0.11 | G -0.365 ± 0.094
W25: R -0.531 ± 0.12 | N -0.557 ± 0.31 | D -0.986 ± 0.31 | G -0.898 ± 0.16 | E -0.713 ± 0.21 | Y 0.169 ± 0.28 | L -0.795 ± 0.29 | Q -0.751 ± 0.47 | S -0.55 ± 0.28 | I -0.393 ± 0.46 | A -0.589 ± 0.09 | M -0.154 ± 0.33 | V -0.668 ± 0.11
E28: I -1.02 ± 0.37 | V -0.71 ± 0.12 | A -0.822 ± 0.19 | G -0.701 ± 0.18 | Y -0.946 ± 0.21 | F -0.796 ± 0.15 | C -0.542 ± 0.27 | S -0.659 ± 0.2 | Q -0.641 ± 0.4 | D -0.673 ± 0.27 | L -0.446 ± 0.33 | M -1.04 ± 0.4 | R -0.576 ± 0.13
E26: R -0.861 ± 0.29 | F -0.617 ± 0.17 | M -0.09 ± 0.32 | T -0.524 ± 0.25 | D -0.168 ± 0.31 | L -0.564 ± 0.11 | A -0.636 ± 0.28 | W -0.84 ± 0.26 | C 0.153 ± 0.33 | P -0.294 ± 0.39 | S -0.658 ± 0.2 | G -0.643 ± 0.16 | V -0.914 ± 0.24 | Q -0.355 ± 0.46 | K -1.04 ± 0.42
N42: K -0.109 ± 0.13 | C -0.437 ± 0.2 | D 0.035 ± 0.16 | E -0.023 ± 0.15 | A -0.571 ± 0.33
T24: L -0.559 ± 0.18 | G -0.662 ± 0.13 | V -0.59 ± 0.12 | S -0.237 ± 0.082 | I -0.692 ± 0.24 | R -0.701 ± 0.21 | P -0.571 ± 0.21 | A -0.561 ± 0.27 | Q -0.503 ± 0.46 | H -0.361 ± 0.38 | C 0.197 ± 0.41
P36: E -0.409 ± 0.29 | V -0.717 ± 0.13 | S -0.488 ± 0.15 | W -0.011 ± 0.19 | R -0.504 ± 0.13 | G -0.514 ± 0.087 | C -0.869 ± 0.28 | D -0.584 ± 0.4 | T -0.604 ± 0.17 | L -0.714 ± 0.17 | K 0.011 ± 0.17 | A -0.42 ± 0.13
R17: E -0.479 ± 0.43 | A -0.465 ± 0.39 | G -0.978 ± 0.25 | I -0.853 ± 0.23 | Q -0.287 ± 0.42 | H -0.02 ± 0.13 | K 0.64 ± 0.17 | P -0.249 ± 0.37 | N -0.218 ± 0.32 | M -0.237 ± 0.27 | L -0.312 ± 0.23 | C -0.151 ± 0.17 | F -0.368 ± 0.47 | V -0.434 ± 0.32
L29: R 0.095 ± 0.13 | Y 0.907 ± 0.18 | M 0.377 ± 0.25 | W -0.986 ± 0.46 | C -0.373 ± 0.42 | A -0.409 ± 0.17 | S -0.452 ± 0.14 | G -0.667 ± 0.092 | E 0.139 ± 0.076 | I 0.281 ± 0.32 | K 0.158 ± 0.16 | V -0.213 ± 0.12 | P -0.722 ± 0.17 | T -0.253 ± 0.11 | H 0.264 ± 0.19
R37: L -0.952 ± 0.2 | G -0.692 ± 0.1 | C -0.75 ± 0.32 | E -0.917 ± 0.4 | M -0.81 ± 0.24 | A -1.19 ± 0.43 | V -0.564 ± 0.13 | Q -0.829 ± 0.5 | P -0.769 ± 0.34 | W -0.733 ± 0.35
L41: A -0.681 ± 0.1 | G -0.569 ± 0.11 | F -0.583 ± 0.1 | T -0.592 ± 0.087 | H -0.543 ± 0.091 | P -0.917 ± 0.15 | Q -0.473 ± 0.21 | K -1.11 ± 0.36 | E -0.781 ± 0.18 | V -0.226 ± 0.077 | R -0.616 ± 0.086 | Y -0.755 ± 0.19 | C -0.734 ± 0.12 | D -1.04 ± 0.18 | M -0.335 ± 0.16 | I -0.409 ± 0.071 | N -0.755 ± 0.098
G18: E 0.071 ± 0.12 | C -0.714 ± 0.44 | Q -0.454 ± 0.31 | A -0.588 ± 0.12 | S -0.33 ± 0.14 | V -0.612 ± 0.26 | K 0.719 ± 0.15 | R -0.316 ± 0.11 | M -0.96 ± 0.36 | L -0.545 ± 0.15 | T 0.098 ± 0.24 | W -0.746 ± 0.25
E16: G -0.868 ± 0.34 | Q 0.176 ± 0.12 | K 0.226 ± 0.24 | S -0.797 ± 0.17 | A -0.46 ± 0.27 | F -0.568 ± 0.24 | Y -0.882 ± 0.24 | T -0.851 ± 0.16 | C -0.632 ± 0.22 | M -0.438 ± 0.16 | W -0.646 ± 0.3 | R -1.09 ± 0.35 | V -0.666 ± 0.24 | L -1.01 ± 0.49 | N -0.657 ± 0.36 | I -0.976 ± 0.31
D35: V -0.836 ± 0.13 | H -0.354 ± 0.42 | E -0.667 ± 0.37 | R -0.436 ± 0.21 | P -0.722 ± 0.47 | W -0.861 ± 0.25 | T -0.892 ± 0.19 | S -0.944 ± 0.35 | A -1.02 ± 0.29 | G -0.757 ± 0.14
